What is called stoichiometry N is a count of units in the complex or per binding partner.

This series concerns the molecule itself. The series is described as follows: SEC; 26/60 Superdex200 High Load gel-filtration column, 20 mM HEPES pH 7.5, 150 mM NaCl, 1 mM DTT.

B1: N-acetylglucosamine-1-phosphate uridyltransferase (GlmU) from Mycobacterium tuberculosis (enzyme)
chain: MTFPGDTAVLVLAAGPGTRMRSDTPKVLHTLAGRSMLSHVLHAIAKLAPQRLIVVLGHDHQRIAPLVGELADTLGRTIDVALQDRPLGTGHAVLCGLSALPDDYAGNVVVTSGDTPLLDADTLADLIATHRAVSAAVTVLTTTLDDPFGYGRILRTQDHEVMAIVEQTDATPSQREIREVNAGVYAFDIAALRSALSRLSSNNAQQELYLTDVIAILRSDGQTVHASHVDDSALVAGVNNRVQLAELASELNRRVVAAHQLAGVTVVDPATTWIDVDVTIGRDTVIHPGTQLLGRTQIGGRCVVGPDTTLTDVAVGDGASVVRTHGSSSSIGDGAAVGPFTYLRPGTALGADGKLGAFVEVKNSTIGTGTKVPHLTYVGDADIGEYSNIGASSVFVNYDGTSKRRTTVGSHVRTGSDTMFVAPVTIGDGAYTGAGTVVREDVPPGALAVSAGPQRNIENWVQRKRPGSPAAQASKRASEMACQQPTQPPDADQTP
notes: GlmU, Mycobacterium tuberculosis, gene Rv1018c (glmU); model built for residues 1-472; also called Rv1018c gene product; M. tuberculosis GlmU
For the protein B1, the “stoichiometry N” value turned out to be 3.
